Laboratory results: US20240116985A1, “STAPLED PEPTIDES AND METHODS THEREOF” (priority 2020, published 2024)
Values joined by “and” are separate entries in the source; they are usually repeats but may differ in a detail not shown here. Equal entries are not always repeated. Starred links: 1 amine or outer side, 2 acyl side, 3 side chain; linkers in the order of their positions; H or OH if unused. Positions of bridges follow the written chain, without caps; N, C: chain ends. Non-standard residues stand in square brackets, D forms with d. PyrS2 = (S)-3-amino-1-((pent-4-en-1-yloxy)carbonyl)pyrrolidine-3-carboxylic acid, C=CCCCOC(=O)N1CC[C@@](N[*:1])(C(=O)[*:2])C1; B5 = 2-amino-2-(pent-4-en-1-yl)hept-6-enoic acid, C=CCCCC(CCCC=C)(N[*:1])C(=O)[*:2]; Bta = N[C@@H](Cc1csc2ccccc12)C(=O)O; αAllylPro = C=CC[C@@]1(C(=O)O)CCCN1; tBuAla = CC(C)(C)C[C@H](N)C(=O)O; 3Thi = N[C@@H](Cc1ccsc1)C(=O)O

Assays:
[1] = target: beta-catenin-Halo NanoBRET construct (Homo sapiens (Human)) (UniProt P35222); assay: NanoBRET raw acceptor reading, Bcat-Halo/TCF4-Luc in HEK293 cells; plate row F (1.25 uM by plate map); competitor TCF4-Luc
[2] = target: beta-catenin-Halo NanoBRET construct (Homo sapiens (Human)) (UniProt P35222); assay: NanoBRET, Bcat-Halo/TCF4-Luc in HEK293 cells; peptide 20 uM; replicate 1; competitor TCF4-Luc
[3] = target: beta-catenin-Halo NanoBRET construct (Homo sapiens (Human)) (UniProt P35222); assay: NanoBRET, Bcat-Halo/TCF4-Luc in HEK293 cells; peptide 5 uM; replicate 3; competitor TCF4-Luc
[4] = target: beta-catenin-Halo NanoBRET construct (Homo sapiens (Human)) (UniProt P35222); assay: NanoBRET, Bcat-Halo/TCF4-Luc in HEK293 cells; peptide 1.25 uM; replicate 3; competitor TCF4-Luc
[5] = target: B-cat-Halo (beta-catenin HaloTag NanoBRET construct expressed in HEK293 cells) (UniProt P35222); assay: NanoBRET in HEK293 cells, Bcat-Halo + TCF4-Luc, peptide at 10 uM
[6] = target: beta-catenin-Halo (NanoBRET construct expressed in HEK293 cells) (Homo sapiens (Human)) (UniProt P35222); assay: NanoBRET, HEK293 cells with Bcat-Halo and TCF4-Luc; plate row B (20 uM by plate map), plate column 7
[7] = target: beta-catenin-Halo NanoBRET construct (Homo sapiens (Human)) (UniProt P35222); assay: NanoBRET, Bcat-Halo/TCF4-Luc in HEK293 cells; peptide 5 uM; replicate 2; competitor TCF4-Luc
[8] = target: beta-catenin-Halo NanoBRET construct (Homo sapiens (Human)) (UniProt P35222); assay: NanoBRET, Bcat-Halo/TCF4-Luc in HEK293 cells; peptide 2.5 uM; replicate 1; competitor TCF4-Luc
[9] = target: beta-catenin-Halo NanoBRET construct (Homo sapiens (Human)) (UniProt P35222); assay: NanoBRET, Bcat-Halo/TCF4-Luc in HEK293 cells; peptide 20 uM; replicate 3; competitor TCF4-Luc
[10] = target: beta-catenin-Halo NanoBRET construct (Homo sapiens (Human)) (UniProt P35222); assay: NanoBRET, Bcat-Halo/TCF4-Luc in HEK293 cells; peptide 0.625 uM; replicate 2; competitor TCF4-Luc
[11] = target: beta-catenin-Halo NanoBRET construct (Homo sapiens (Human)) (UniProt P35222); assay: NanoBRET, Bcat-Halo/TCF4-Luc in HEK293 cells; peptide 0.625 uM; replicate 3; competitor TCF4-Luc
[12] = target: beta-catenin-Halo (NanoBRET construct expressed in HEK293 cells) (Homo sapiens (Human)) (UniProt P35222); assay: NanoBRET, HEK293 cells with Bcat-Halo and TCF4-Luc; plate row G (0.625 uM by plate map), plate column 7
[13] = target: beta-catenin-Halo NanoBRET construct (Homo sapiens (Human)) (UniProt P35222); assay: NanoBRET, Bcat-Halo/TCF4-Luc in HEK293 cells; peptide 0.625 uM; replicate 1; competitor TCF4-Luc
[14] = target: beta-catenin-Halo NanoBRET construct (Homo sapiens (Human)) (UniProt P35222); assay: NanoBRET, Bcat-Halo/TCF4-Luc in HEK293 cells; peptide 10 uM; replicate 3; competitor TCF4-Luc
[15] = target: beta-catenin-Halo (NanoBRET construct expressed in HEK293 cells) (Homo sapiens (Human)) (UniProt P35222); assay: NanoBRET, HEK293 cells with Bcat-Halo and TCF4-Luc; plate row F (1.25 uM by plate map), plate column 7
[16] = target: beta-catenin-Halo (NanoBRET construct expressed in HEK293 cells) (Homo sapiens (Human)) (UniProt P35222); assay: NanoBRET, HEK293 cells with Bcat-Halo and TCF4-Luc; plate row G (0.625 uM by plate map), plate column 5
[17] = target: beta-catenin-Halo (NanoBRET construct expressed in HEK293 cells) (Homo sapiens (Human)) (UniProt P35222); assay: NanoBRET, HEK293 cells with Bcat-Halo and TCF4-Luc; plate row C (10 uM by plate map), plate column 6
[18] = target: beta-catenin-Halo NanoBRET construct (Homo sapiens (Human)) (UniProt P35222); assay: NanoBRET, Bcat-Halo/TCF4-Luc in HEK293 cells; peptide 10 uM; replicate 2; competitor TCF4-Luc
[19] = target: full-length beta-Catenin (Uniprot ID P35222) (Homo sapiens (Human)) (UniProt P35222); assay: fluorescence polarization competition: peptide titrated against 10 nM full-length beta-catenin + 10 nM 5FAM-TCF4(10-53) probe
[20] = target: beta-catenin-Halo NanoBRET construct (Homo sapiens (Human)) (UniProt P35222); assay: NanoBRET raw acceptor reading, Bcat-Halo/TCF4-Luc in HEK293 cells; plate row G (0.625 uM by plate map); competitor TCF4-Luc

beta-catenin-Halo NanoBRET construct (Homo sapiens (Human)), sequence (P35222 whole entry): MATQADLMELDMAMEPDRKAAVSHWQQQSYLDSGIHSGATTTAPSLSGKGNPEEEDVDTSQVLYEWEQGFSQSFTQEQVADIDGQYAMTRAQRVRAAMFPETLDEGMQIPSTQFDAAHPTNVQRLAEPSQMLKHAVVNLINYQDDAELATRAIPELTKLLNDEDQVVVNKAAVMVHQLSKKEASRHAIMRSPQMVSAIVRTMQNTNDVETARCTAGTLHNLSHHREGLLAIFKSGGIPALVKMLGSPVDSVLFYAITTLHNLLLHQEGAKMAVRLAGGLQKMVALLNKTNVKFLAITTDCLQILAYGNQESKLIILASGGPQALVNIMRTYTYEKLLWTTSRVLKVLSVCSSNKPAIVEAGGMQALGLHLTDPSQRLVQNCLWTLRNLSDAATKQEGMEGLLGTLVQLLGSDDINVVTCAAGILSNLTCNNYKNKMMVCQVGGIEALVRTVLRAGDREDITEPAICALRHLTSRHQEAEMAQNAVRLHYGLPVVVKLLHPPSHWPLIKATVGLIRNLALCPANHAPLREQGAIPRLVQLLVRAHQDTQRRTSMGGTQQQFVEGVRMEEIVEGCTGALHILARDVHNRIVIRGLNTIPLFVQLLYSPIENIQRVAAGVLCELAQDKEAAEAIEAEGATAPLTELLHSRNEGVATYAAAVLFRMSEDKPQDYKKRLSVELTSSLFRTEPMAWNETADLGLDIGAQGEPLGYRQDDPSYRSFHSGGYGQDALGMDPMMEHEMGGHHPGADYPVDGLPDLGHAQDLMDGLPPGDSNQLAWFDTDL
beta-catenin-Halo (NanoBRET construct expressed in HEK293 cells) (Homo sapiens (Human)), sequence (P35222 whole entry): as above
B-cat-Halo (beta-catenin HaloTag NanoBRET construct expressed in HEK293 cells), sequence (P35222 whole entry): as above
full-length beta-Catenin (Uniprot ID P35222) (Homo sapiens (Human)), sequence (P35222 2-781 limits assumed): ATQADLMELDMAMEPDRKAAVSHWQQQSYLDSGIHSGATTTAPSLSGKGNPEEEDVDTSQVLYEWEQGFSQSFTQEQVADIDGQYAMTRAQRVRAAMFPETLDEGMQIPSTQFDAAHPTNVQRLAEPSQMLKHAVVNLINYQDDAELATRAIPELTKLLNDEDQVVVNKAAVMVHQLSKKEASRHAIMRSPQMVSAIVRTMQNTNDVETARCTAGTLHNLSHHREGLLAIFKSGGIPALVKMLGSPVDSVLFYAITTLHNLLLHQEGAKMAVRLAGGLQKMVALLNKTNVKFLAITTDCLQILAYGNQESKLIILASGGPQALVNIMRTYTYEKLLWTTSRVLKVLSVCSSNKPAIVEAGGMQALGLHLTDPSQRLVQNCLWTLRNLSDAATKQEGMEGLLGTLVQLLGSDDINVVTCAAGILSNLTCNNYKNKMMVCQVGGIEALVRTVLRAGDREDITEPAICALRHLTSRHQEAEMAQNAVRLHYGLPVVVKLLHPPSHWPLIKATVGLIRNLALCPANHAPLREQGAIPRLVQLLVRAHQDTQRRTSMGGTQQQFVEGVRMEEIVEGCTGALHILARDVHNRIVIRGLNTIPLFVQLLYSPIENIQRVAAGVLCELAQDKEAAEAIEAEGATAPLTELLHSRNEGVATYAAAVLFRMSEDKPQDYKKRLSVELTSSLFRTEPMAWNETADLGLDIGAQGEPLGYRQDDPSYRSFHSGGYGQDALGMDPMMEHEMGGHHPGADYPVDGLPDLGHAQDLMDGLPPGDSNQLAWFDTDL

**Q.** Which results are given for Ac-[αAllylPro]F[tBuAla][B5]DDAADN[PyrS2][3Thi][Bta]Q-NH2 (staple 1-4, 4-11) [I-797]?
**A.** Acceptor 600 LP emission [1]: 300 and 410 and 860; % Inhibition [2]: -36.7%; % Inhibition [3]: -18.6%; % Inhibition [4]: -4%; NanoBRET % inh @ 10 uM [5]: 4.3%; NanoBRET donor emission 450 BP (raw reading) [6]: 48000; % Inhibition [7]: -28.4%; % Inhibition [8]: -21.3%; % Inhibition [9]: -19.5%; % Inhibition [10]: -6.9%; % Inhibition [11]: 8.3%; NanoBRET donor emission 450 BP (raw reading) [12]: 47600; % Inhibition [13]: -56.5%; % Inhibition [14]: 1.7%; NanoBRET donor emission 450 BP (raw reading) [15]: 71100; NanoBRET donor emission 450 BP (raw reading) [16]: 25200; NanoBRET donor emission 450 BP (raw reading) [17]: 25900; % Inhibition [18]: -21.9%; EC50 [19]: 10 µM; Acceptor 600 LP emission [20]: 410 and 440 and 530
